Key:
[1] = biological target: plasma purified human complement protein C3 (human) (UniProt P01024); assay: cell-based or functional assay
[2] = biological target: human complement protein C3 (human) (UniProt P01024); assay: cell-based or functional assay
human complement protein C3 (human), sequence (P01024 23-667, chain 1 of 2): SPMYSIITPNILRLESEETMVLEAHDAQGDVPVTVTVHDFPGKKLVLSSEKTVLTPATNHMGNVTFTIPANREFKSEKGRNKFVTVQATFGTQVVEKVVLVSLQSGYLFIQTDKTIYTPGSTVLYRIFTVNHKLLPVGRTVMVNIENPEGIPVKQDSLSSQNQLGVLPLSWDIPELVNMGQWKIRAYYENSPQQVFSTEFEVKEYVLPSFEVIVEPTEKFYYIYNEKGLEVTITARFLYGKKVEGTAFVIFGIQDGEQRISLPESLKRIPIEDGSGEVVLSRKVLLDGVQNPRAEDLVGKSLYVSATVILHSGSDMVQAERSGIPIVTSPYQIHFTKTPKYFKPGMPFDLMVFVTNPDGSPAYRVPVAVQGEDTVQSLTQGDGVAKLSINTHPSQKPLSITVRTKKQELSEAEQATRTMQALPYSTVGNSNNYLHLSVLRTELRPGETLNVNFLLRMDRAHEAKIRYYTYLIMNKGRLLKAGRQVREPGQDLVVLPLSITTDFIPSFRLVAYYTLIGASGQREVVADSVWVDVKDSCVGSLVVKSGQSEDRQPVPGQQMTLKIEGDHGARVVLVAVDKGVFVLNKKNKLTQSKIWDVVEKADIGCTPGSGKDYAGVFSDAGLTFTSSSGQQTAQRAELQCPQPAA
human complement protein C3 (human), sequence (P01024 672-1663, chain 2 of 2): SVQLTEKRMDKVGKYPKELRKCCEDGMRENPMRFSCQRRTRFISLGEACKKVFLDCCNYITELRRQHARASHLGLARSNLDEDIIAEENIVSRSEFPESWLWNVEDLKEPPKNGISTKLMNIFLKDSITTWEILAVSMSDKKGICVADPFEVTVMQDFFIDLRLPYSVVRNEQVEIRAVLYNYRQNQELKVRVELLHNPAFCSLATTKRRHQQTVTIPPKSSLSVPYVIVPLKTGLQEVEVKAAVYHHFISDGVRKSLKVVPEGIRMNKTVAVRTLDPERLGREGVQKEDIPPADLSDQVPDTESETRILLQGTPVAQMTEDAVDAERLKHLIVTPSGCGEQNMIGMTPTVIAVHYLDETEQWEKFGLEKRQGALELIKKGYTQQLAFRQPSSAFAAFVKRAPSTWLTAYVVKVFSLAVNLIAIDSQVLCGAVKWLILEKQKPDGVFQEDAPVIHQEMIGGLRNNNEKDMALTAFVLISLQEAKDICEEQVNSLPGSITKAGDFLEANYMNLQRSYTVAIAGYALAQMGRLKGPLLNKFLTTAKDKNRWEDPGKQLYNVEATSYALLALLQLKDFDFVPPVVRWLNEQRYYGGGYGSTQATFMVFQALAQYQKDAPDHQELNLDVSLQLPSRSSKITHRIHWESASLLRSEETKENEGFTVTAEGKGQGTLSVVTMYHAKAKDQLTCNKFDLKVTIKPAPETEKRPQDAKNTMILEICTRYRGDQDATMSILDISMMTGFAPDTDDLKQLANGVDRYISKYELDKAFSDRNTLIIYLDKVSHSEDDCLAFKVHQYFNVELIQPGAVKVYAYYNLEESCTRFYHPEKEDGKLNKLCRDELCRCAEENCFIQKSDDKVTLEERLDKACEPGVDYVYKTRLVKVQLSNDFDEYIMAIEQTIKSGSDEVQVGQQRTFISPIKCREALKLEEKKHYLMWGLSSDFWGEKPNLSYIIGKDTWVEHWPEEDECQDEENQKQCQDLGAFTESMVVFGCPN

plasma purified human complement protein C3 (human), sequence (P01024 23-667, chain 1 of 2): as the sequence (P01024 23-667, chain 1 of 2) above
plasma purified human complement protein C3 (human), sequence (P01024 672-1663, chain 2 of 2): as the sequence (P01024 672-1663, chain 2 of 2) above

Row | Substance | EC50 of hC3 cleavage [1] [nM] | also measured
1 | MTSP-1 protease domain Q38Y/I41S/D60bT/F60eR/Y60gW/D96M/F97N/T98G/F99L/C122S/Q175L/Q192D (from UniProt Q9Y5Y6 615-855) (enzyme) | – | EC50 hC3 cleavage [1]: 3.75 nM
2 | MTSP-1 H40R/I41H/F97D/F99L/C122S/G151D/Q192G (from UniProt Q9Y5Y6 615-855) (enzyme) | 1530 | –
3 | Q38Y/I41S/D60bT/F60eR/Y60gW/D96M/F97N/T98G/F99L/C122S/Q175L/Q192D (from UniProt Q9Y5Y6 615-855) (enzyme) | – | EC50 (nM), cleavage of purified hC3 in vitro [2]: 3.75 nM
4 | MTSP-1 H40R/I41H/Y60gL/F97D/F99L/C122S/G151N/Q175M/D217I/K224S (from UniProt Q9Y5Y6 615-855) (enzyme) | 7.41 | –
5 | MTSP-1 H40R/I41H/F97D/F99L/C122S/Q175L/Q192G/D217Q/K224R (from UniProt Q9Y5Y6 615-855) (enzyme) | 14.9 | –
